# In paper doi:10.1101/2025.02.18.638932, “CHIP protects lysosomes from CLN4 mutant-induced membrane damages” (bioRxiv, 2025):
# B1: recombinant human DNAJC5 L116Δ (natural protein, UniProt Q9H3Z4 1-198, looked up)
# chain: MADQRQRSLSTSGESLYHVLGLDKNATSDDIKKSYRKLALKYHPDKNPDNPEAADKFKEINNAHAILTDATKRNIYDKYGSLGLYVAEQFGEENVNTYFVLSSWWAKALFVFCGLTCCYCCCCLCCCFNCCCGKCKPKAPEGEETEFYVSPEDLEAQLQSDEREATDTPIVIQPASATETTQLTADSHPSYHTDGFN
# notes: DNAJC5, human, CLN4 disease mutant L116Δ (p.L116del, c.346-348del); A TEV cleavage site lies between the GST tag and the protein; also called hDNAJC5 L116Δ; purified L116Δ mutant; source: E. coli BL21(DE3), purified (Glutathione Sepharose, eluted by TEV protease)
# Target: the molecule itself
# Test: immunoblotting of SDS-resistant high molecular weight species; purified DNAJC5 protein incubated with buffer or calf liver cytosol with or without ATP at 37 °C for 30 min, then immunoblotting
protein,measurement,value
B1,binding result,binds
